In PMC5459902 (Scientific Reports, 2017):

Legend:
PnFPOX = target: T1, PnFPOX (Parastagonospora nodorum, UniProt Q0UIL6); experiment: X-ray crystal structure, […] Å; assay type: binding; details: covalent; bond to Cys343
T1 construct: gene SNOG_08398; His-tagged, pET22b (NdeI/XhoI), E. coli BL21(DE3); HisTrap purified; 49 kDa on SDS-PAGE
T1 sequence (Q0UIL6 1-437): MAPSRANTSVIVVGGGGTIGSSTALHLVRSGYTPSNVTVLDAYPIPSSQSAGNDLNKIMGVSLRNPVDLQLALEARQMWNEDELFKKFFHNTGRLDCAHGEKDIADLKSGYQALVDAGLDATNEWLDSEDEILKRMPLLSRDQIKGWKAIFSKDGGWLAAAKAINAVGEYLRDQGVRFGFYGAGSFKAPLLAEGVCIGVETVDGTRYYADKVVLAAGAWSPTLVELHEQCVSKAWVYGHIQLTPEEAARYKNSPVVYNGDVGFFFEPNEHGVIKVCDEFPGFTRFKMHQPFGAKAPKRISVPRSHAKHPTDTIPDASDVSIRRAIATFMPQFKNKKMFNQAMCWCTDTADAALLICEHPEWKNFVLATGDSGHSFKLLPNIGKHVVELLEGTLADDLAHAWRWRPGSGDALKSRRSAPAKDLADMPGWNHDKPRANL

[1] = test system: CC(C)[C@H](NC[C@@]1(O)OC[C@@H](O)[C@@H](O)[C@@H]1O)C(=O)O; experiment: H2O2 formation, peroxidase-coupled 4-AA/TOOS spectrophotometric assay; assay type: biochemical, Parastagonospora nodorum; details: oxidase activity, O2 as electron acceptor, 10 mM potassium phosphate pH 7.0, 298 K, 25.0 °C
Excerpt: (§1) H2O2 formation, peroxidase-coupled 4-AA/TOOS spectrophotometric assay on PnFPOX

[2] = substrate: CC(C)[C@H](NC[C@@]1(O)OC[C@@H](O)[C@@H](O)[C@@H]1O)C(=O)O; experiment: as above; assay type: biochemical, Parastagonospora nodorum; details: oxidase activity, O2 as electron acceptor, 10 mM potassium phosphate pH 7.0, 298 K, 25.0 °C; remark: listed apart in the source
Excerpt: as §1

Molecule: Cc1cc2nc3c(=O)[nH]c(=O)nc-3n(C[C@H](O)[C@H](O)[C@H](O)COP(=O)(O)OP(=O)(O)OC[C@H]3O[C@@H](n4cnc5c(N)ncnc54)[C@H](O)[C@@H]3O)c2cc1C [FAD]
- X-ray crystal structure, 1.83 Å (PnFPOX): A covalent bond is formed between FAD and Cys343 of PnFPOX

Molecule: PnFPOX (Parastagonospora nodorum SN15; D54A/N56A)
- Km [1]: 14 ± 1.2 µM
- Vmax [1]: 0.078 µmol/min/mg
- Vmax/Km [1]: 5730 µL/min/mg

Molecule: PnFPOX (Parastagonospora nodorum SN15; D54N/N56A)
- Km [1]: 46 ± 3.7 µM

B1: PnFPOX (Parastagonospora nodorum SN15) (protein)
chain: T1 sequence (Q0UIL6 1-437)
notes: His-tagged, pET22b (NdeI/XhoI), E. coli BL21(DE3); HisTrap purified; 49 kDa on SDS-PAGE
- Km [2]: 359 ± 6.2 µM
- Vmax [2]: 29.9 µmol/min/mg
- Vmax/Km [2]: 83300 µL/min/mg
